Measured values taken from US20130022592A1, “Continuous subcutaneous insulin infusion methods with a hyaluronan-degrading enzyme” (priority 2011, published 2013).
Entries after “also recorded” stand apart in the source; their conditions may differ. Like-named read-outs stand apart in the source and are kept apart here.

Columns and labels:
[1] = cited from earlier work
[2] = Glucodynamics in euglycemic clamps, NovoLog CSII with or without rHuPH20 pretreatment (Example 3); assay type: in vivo, human; settings: for faster onset of action with rHuPH20 pretreatment / shorter duration of action with rHuPH20 pretreatment: vs without rHuPH20
Procedure: The subjects were confined to an inpatient setting for three days of study.
Approximately 2 hours after insertion of the new insulin infusion catheter set, a euglycemic glucose clamp experiment was conducted (1′ clamp). […] Blood glucose was clamped at 90% of the fasting level to suppress endogenous insulin release during the study. A 0.15 U/kg bolus was administered through the insulin pump; and the usual individual basal rate was continued during clamps and PK results are thus baseline-subtracted.
During the euglycemic glucose clamp experiment, the subjects were followed for six (6) hours during which blood was drawn and free insulin levels and glucose infusion rates required to maintain euglycemia were determined.
In each experiment, the subjects were followed for six (6) hours during which blood was drawn and free insulin levels and glucose infusion rates required to maintain euglycemia were determined as described above.
(§1) The insulin action profile as a function of time, or glucodynamics, was measured by determining the rate of glucose infusion necessary to maintain euglycemia following the bolus insulin infusion.

[3] = Blood glucose response to standardized evening meal (Example 3); assay type: in vivo, human; settings: with vs without rHuPH20
From the text: (§2) The study was continued to include 15 subjects who completed the study protocol, and was further continued to include 17 subjects who completed the study protocol. The subjects were confined to an inpatient setting for three days of study.

[4] = Glucodynamics in euglycemic clamps, rapid acting insulin analog CSII with rHuPH20 or sham injection (Example 4); assay type: in vivo, human
From the text: Patients with type 1 diabetes participated in a randomized, double-blind, 2-way crossover design clinical study comparing the administration of a single hyaluronidase injection at each infusion set change to sham injections in a CSII therapy. The study compared euglycemic clamp endpoints at the beginning and end of 3 days of continuous infusion and glycemic response to a series of four breakfast solid meal challenges. […] In addition, continuous glucose monitoring of the three subjects to compare glucose control in routine outpatient diabetes care also was assessed.
Subjects were released from the CRU the same day.
Subjects returned 3 days later for a second euglycemic clamp after 3 days of continuous infusion. After the clamp experiment the infusion set was changed and the patients discharged. […] Subjects returned to the CRU approximately every 3 days to receive a new infusion set and receive a patient specific standardized breakfast meal and insulin bolus.
as §1

[5] = Routine diabetes management, continuous glucose monitoring (Example 4); assay type: in vivo, human; settings: three patients; rHuPH20 preadministration
Procedure: The results are depicted below for the first three subjects that completed the study. In addition, continuous glucose monitoring of the three subjects to compare glucose control in routine outpatient diabetes care also was assessed. […] After the clamp experiment the infusion set was changed and the patients discharged. […] To maintain the double-blind study design, a trained professional not otherwise involved in the study administered either rHuPH20 or a sham injection while the patient looked away. After completion of the phase, patients returned to the CRU within 21 days to repeat these steps with the alternate treatment.

[6] = Adverse events (Example 4); assay type: in vivo, human; settings: eleven evaluable subjects
From the text: 4. […] All were mild and resolved without sequaelae. The most common event was headache (n=4).

[7] = in vivo
Procedure: as §2
Adverse events were assessed during the course or infusion treatment.

In the case of Lente, the Peak ([1]; in vivo) is given as 6 to 12 h.

In the case of Regular Insulin, the Duration ([1]; Table 2, Types of Insulins) is listed as 5 to 8 h and the onset of action ([1]; administered subcutaneously alone) is listed as 30 min.

For “detemir: long-lasting insulin (an analog)”, the Duration ([1]; Table 2, Types of Insulins) is listed as 28 h, the Onset ([1]; Table 2, Types of Insulins) is listed as 4 to 6 h and the Peak ([1]; Table 2, Types of Insulins) is listed as 18 to 28 h.

In the case of insulin glargine, the Duration ([1]; Table 2, Types of Insulins) is given as 28 h, the Onset ([1]; Table 2, Types of Insulins) is given as 4 to 6 h and the Peak ([1]; Table 2, Types of Insulins) is given as 18 to 28 h.

In the case of insulin lispro, the Duration ([1]; Table 2, Types of Insulins) is listed as 3 to 4 h, the Onset ([1]; Table 2, Types of Insulins) is listed as 0.083 to 0.25 h and the Peak ([1]; Table 2, Types of Insulins) is listed as 0.75 to 1.5 h.

B1: rHuPH20: soluble recombinant human PH20 hyaluronidase expressed in CHO cells from nucleic acid encoding amino acids 36-482 of SEQ ID NO:1; mixture of SEQ ID NOS:4-9 (protein, listed as Homo sapiens)
chain: LNFRAPPVIPNVPFLWAWNAPSEFCLGKFDEPLDMSLFSFIGSPRINATGQGVTIFYVDRLGYYPYIDSITGVTVNGGIPQKISLQDHLDKAKKDITFYMPVDNLGMAVIDWEEWRPTWARNWKPKDVYKNRSIELVQQQNVQLSLTEATEKAKQEFEKAGKDFLVETIKLGKLLRPNHLWGYYLFPDCYNHHYKKPGYNGSCFNVEIKRNDDLSWLWNESTALYPSIYLNTQQSPVAATLYVRNRVREAIRVSKIPDAKSPLPVFAYTRIVFTDQVLKFLSQDELVYTFGETVALGASGIVIWGTLSIMRSMKSCLLLDNYMETILNPYIINVTLAAKMCSQVLCQEQGVCIRKNWNSSDYLHLNPDNFAIQLEKGGKFTVRGKPTLEDLEQFSEKFYCSCYSTLSCKEKADVKDTDAVDVCIADGVCIDAFLKPPMETEEPQIFY
modifications: mixture of SEQ ID NOS:4-9; precursor human PH20
For B1, the “faster onset of action with rHuPH20 pretreatment” value (“faster onset of action” below) ([2]; 15 completers) was 9 min, the “shorter duration of action with rHuPH20 pretreatment” value (from here on “shorter duration of action”) ([2]; 15 completers) was 27 min and the “faster onset of action” value ([2]; 17 completers) was 9 min. For the same molecule, the “shorter duration of action” value ([2]; 17 completers) was 27 min, the “differences in early insulin exposure, onset or duration of action over three days of continuous infusion (in words)” value ([2]; Example 3, rHuPH20 pretreatment) was “no significant differences” and the “reduction in 2 hour glycemic excursion” value ([3]; 15 completers) was 21 mg/dL. For the same molecule, the “reduction in 2 hour glycemic excursion” value ([3]; 17 completers) was 19 mg/dL, the “differences in onset or duration of action over three days of continuous infusion (in words)” value ([4]; Example 4, rHuPH20 pretreatment) was “no significant differences” and the “faster onset of action” value ([4]; vs without rHuPH20) was 21 min. The “shorter duration of action” value ([4]; vs without rHuPH20) was 30 min, the “outpatient glucose control (in words)” value [5] was “tighter glucose control” and the “Potential local site reactions (in words)” value [6] was “an abdominal bruise; also recorded: pain at the infusion site; also recorded: a stinging sensation during infusion”. The “subjects with adverse events related to CSII infusion sites (in words)” value [7] was “two subjects”.
